Measurements published in paper PMC12834908.

Legend:
[1] = target: S500D-eEF-2K, phosphorylated at T348 (S500D-eEF-2K^p) (UniProt O00418)
[2] = target: eukaryotic elongation factor-2 kinase, wild type, phosphorylated at T348 (eEF-2K^p) (UniProt O00418)

Substance: calmodulin (CaM) (from UniProt P0DP23 1-149) (natural protein)
- Ca^2+/CaM-dependent kinase activity kobs (2 μM CaM, 450 μM PepS peptide substrate) [1]: 33 s⁻¹
- Ca^2+/CaM-dependent kinase activity kobs (2 μM CaM, 450 μM PepS peptide substrate) [2]: 40 s⁻¹
